In patent US20030157132A1 one finds Kd data, which are given here for one molecule.

This experiment addresses E2tag (tPA signal+E2(384-711)+tag; soluble E2/NS1 of HCV J1 clone with C-terminal E-tag) (hepatitis C virus (HCV J1 clone)). The experiment can be described thus: SPR, BIACORE X; E2tag amine-coupled to CM5 chip, scFv1-1 injected in HBS buffer.

B1: single chain antibody scFv1-1 (scFv)
scFv: QVQLVQSGAEVKKPGSSVKVSCKASGGTYIDQPIGWVRQAPGQGLEWMGGIIPLSGPPHYAQKFQGKVSITADESTSTAYLELTSLTSEDTAVYYCARVLRGYCRRGSCYDWLDPWGQGTLVTVSSGGGGSGGGGSGGGGSALDIQMTQSPSSLSASVGDRVTITCQASQDISNYLNWYQQKPGKAPKLLLYATSRLYSGVPSRFSGSGSGTDFTLSISSLQPEDFATYYCQQTKSFPLTFGGGTKVEIKRAAAEQKLISEEDLGSRSTHHAHHHAA
For orientation: Kd means the constant that tells how readily two partners part at equilibrium. A lower Kd goes with tighter binding. For the molecule B1, the Kd was found to be 2.2 nM. This counts as single-digit nanomolar.
